The data set deals with T1, MdMYB1-HIS (Malus domestica, UniProt M1UZJ0 1-243).
T1 sequence: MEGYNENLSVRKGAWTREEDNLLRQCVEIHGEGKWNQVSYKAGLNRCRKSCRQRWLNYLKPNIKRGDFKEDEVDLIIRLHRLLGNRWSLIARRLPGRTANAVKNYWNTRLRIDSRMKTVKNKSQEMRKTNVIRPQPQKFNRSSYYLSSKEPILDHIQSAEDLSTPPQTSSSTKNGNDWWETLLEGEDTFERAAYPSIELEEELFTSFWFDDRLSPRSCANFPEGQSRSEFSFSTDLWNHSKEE
Put plainly: EMSA; Proteins and biotin probes mixed in binding buffer for 25 min, acrylamide gel; buffer, salt, pH and temperature not stated. The settings on record: protein: recombinant; tags: His (pET32a); label: biotin; blunt.

Here are results for two molecules from paper PMC7475178, “Dynamic regulation of anthocyanin biosynthesis at different light intensities by the BT2-TCP46-MYB1 module in apple”.

B1: MdUF3GT-Probe (dsDNA)
DNA 1: ACCTTCCCGTCAGTTATTGCAGGTGG
DNA 2: CCACCTGCAATAACTGACGGGAAGGT
For the molecule B1, the binding result is listed as “binds”.

B2: MdDFR-Probe (dsDNA)
DNA 1: CGTGCGTCAACCGTTAGGAAAGCACG
DNA 2: CGTGCTTTCCTAACGGTTGACGCACG
Consider B2, for which the binding result is “binds”.
